Assay results from article PMC11667269 (Journal for Immunotherapy of Cancer, 2024).

Tests used:
[1] = biological target: human CD79b (hCD79b) immobilised for surface plasmon resonance (Homo sapiens, UniProt P40259); assay: SPR
[2] = biological target: CD19 expressed on K562 cells (K562-CD19) (Homo sapiens, UniProt P15391); assay: flow cytometry on cells
CD19 expressed on K562 cells (K562-CD19), sequence (P15391 20-556): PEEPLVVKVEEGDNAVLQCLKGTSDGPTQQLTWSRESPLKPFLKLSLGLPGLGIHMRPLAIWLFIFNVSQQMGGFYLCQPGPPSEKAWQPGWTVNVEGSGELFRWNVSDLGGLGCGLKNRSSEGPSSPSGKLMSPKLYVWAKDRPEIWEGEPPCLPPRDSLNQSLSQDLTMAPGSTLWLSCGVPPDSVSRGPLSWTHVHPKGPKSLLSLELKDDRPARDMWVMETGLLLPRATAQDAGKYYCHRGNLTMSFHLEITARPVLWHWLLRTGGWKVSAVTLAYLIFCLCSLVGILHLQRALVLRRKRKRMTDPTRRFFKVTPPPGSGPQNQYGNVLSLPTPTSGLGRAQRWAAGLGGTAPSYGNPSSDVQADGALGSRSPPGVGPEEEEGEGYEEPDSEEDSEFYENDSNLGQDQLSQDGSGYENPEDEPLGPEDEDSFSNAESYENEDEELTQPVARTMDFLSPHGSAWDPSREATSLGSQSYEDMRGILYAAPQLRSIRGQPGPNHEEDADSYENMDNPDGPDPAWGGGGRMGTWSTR

human CD79b (hCD79b) immobilised for surface plasmon resonance, sequence (P40259 29-229): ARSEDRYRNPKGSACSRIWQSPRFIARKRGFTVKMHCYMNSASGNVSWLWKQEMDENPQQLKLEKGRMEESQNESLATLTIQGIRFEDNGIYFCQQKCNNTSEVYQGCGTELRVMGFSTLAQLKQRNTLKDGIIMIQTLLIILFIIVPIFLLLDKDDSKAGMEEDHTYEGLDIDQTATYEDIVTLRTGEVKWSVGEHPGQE

B1: CARLY2 monoclonal murine antibody against CD79b (mouse monoclonal IgG1 CD79b.1.50) (antibody, V domains shown)
VH: QVQLQQPGAELVRPGASVKLSCKASGYTFTTYWMNWVKQRPGQGLEWIGMIDPSDSETHYNQMFKDKATLTVDKSSTTAYMQLSSLTSEDSAVYYCARTLSYWGQGTLVTVSA
VL: not shown
binding result [1]: binds
binding result [2]: no binding
